The values below come from patent publication US8771694 (IMMUNOMEDICS, dated 2014).

For the experiment, the target named is T1, CD22 (LL2 antigen on the surface of Raji cells) (UniProt P20273 20-847, limits assumed).
T1 construct: whole, on cells; All assays used whole Raji cells; also called Raji cell surface antigen; B-lymphoma cells
T1 sequence (looked up): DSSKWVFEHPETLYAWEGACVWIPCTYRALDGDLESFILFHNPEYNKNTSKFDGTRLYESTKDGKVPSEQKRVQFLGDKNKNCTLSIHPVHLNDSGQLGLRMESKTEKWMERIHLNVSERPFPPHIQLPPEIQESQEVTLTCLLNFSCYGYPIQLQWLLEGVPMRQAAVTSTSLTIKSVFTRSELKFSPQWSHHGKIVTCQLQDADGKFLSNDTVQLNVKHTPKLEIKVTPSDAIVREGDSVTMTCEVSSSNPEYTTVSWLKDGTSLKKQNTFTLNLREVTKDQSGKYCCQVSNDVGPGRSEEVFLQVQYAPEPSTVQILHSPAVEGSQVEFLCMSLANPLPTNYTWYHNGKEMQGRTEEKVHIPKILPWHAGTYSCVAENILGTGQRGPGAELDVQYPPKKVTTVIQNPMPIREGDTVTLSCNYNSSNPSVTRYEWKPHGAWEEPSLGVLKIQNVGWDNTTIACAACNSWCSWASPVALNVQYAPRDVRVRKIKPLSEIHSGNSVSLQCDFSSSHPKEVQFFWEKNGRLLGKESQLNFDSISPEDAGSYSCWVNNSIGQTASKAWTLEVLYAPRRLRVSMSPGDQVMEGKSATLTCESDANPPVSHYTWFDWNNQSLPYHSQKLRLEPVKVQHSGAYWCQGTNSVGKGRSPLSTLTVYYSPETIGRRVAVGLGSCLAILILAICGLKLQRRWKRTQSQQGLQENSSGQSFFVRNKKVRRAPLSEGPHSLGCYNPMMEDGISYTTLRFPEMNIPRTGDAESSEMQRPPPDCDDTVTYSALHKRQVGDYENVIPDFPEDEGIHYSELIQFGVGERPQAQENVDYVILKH
Kind of experiment: competition flow cytometry on Raji cells, competitor mLL2 F(ab')2. The method, then: The Raji cell surface antigen binding affinities of mix-and-match and fully humanized antibodies can be compared to that of cLL2 using various concentrations of mLL2 F(ab')_2 fragments devoid of the Fc portion as competitors, as evaluated by flow cytometry assay. Residual surface-bound LL2 antibodies carrying the human Fc portions (cLL2 and mix-and-match LL2) can be detected by a FITC-labeled anti-human Fc specific antibody in a flow cytometry assay.
Briefly, 1 µg of cLL2, mix-and-match LL2, hLL2-1 or hLL2-2 antibodies were incubated with […] Raji cells in the presence of varying concentrations of mLL2 F(ab')_2 fragments (as competitor) in a final volume of 100 µl of PBS buffer supplemented with 1% FCS and 0.01% sodium azide. The mixture was incubated for 30 minutes at 4° C., and washed three times with PBS to remove unbound antibodies. By taking advantage of the presence of human Fc portions in the antibodies, the binding levels of the antibodies were assessed by adding a 20×diluted FITC-labeled goat anti-human IgG1, Fc fragment-specific antibodies (Jackson ImmunoResearch, West Grove, Pa.). The cells were washed three times with PBS, and fluorescence intensities measured by a FACSCAN fluorescence activated cell sorter (Becton-Dickinson, Bedford, Mass.).

B1: humanized LL2 version 1 (antibody, human IgG1, V domains shown)
VH: QVQLQQSGAEVKKPGSSVKVSCKASGYTFTSYWLHWVRQAPGQGLEWIGYINPRNDYTEYNQNFKDKATITADESTNTAYMELSSLRSEDTAFYFCARRDITTFYWGQGTTVTVSS
VL: DIQLTQSPSSLSASVGDRVTMSCKSSQSVLYSANHKNYLAWYQQKPGKAPKLLIYWASTRESGVPSRFSGSGSGTDFTFTISSLQPEDIATYYCHQYLSSWTFGGGTKVQIKR
notes: VH has Q at Kabat position 5; also called hLL2-1; hLL2 with seven murine FR residues in the VH domain
As to B1, the binding result is recorded as “binds”.

B2: humanized LL2 version 2 (antibody, human IgG1, V domains shown)
VH: QVQLVQSGAEVKKPGSSVKVSCKASGYTFTSYWLHWVRQAPGQGLEWIGYINPRNDYTEYNQNFKDKATITADESTNTAYMELSSLRSEDTAFYFCARRDITTFYWGQGTTVTVSS
VL: DIQLTQSPSSLSASVGDRVTMSCKSSQSVLYSANHKNYLAWYQQKPGKAPKLLIYWASTRESGVPSRFSGSGSGTDFTFTISSLQPEDIATYYCHQYLSSWTFGGGTKVQIKR
notes: VH has V at Kabat position 5; also called hLL2-2; hLL2
Take B2: the binding result was “binds”.
